Assay results from patent US20260374897 (published 2026).
One block for each binder: values may come before it.

Assays:
[1] = molecular target: human FAP (cell surface) (human, UniProt Q12884); assay: FACS
[2] = molecular target: T1, mouse FAP (cell surface) (mouse, UniProt P97321); assay: FACS
T1 chain: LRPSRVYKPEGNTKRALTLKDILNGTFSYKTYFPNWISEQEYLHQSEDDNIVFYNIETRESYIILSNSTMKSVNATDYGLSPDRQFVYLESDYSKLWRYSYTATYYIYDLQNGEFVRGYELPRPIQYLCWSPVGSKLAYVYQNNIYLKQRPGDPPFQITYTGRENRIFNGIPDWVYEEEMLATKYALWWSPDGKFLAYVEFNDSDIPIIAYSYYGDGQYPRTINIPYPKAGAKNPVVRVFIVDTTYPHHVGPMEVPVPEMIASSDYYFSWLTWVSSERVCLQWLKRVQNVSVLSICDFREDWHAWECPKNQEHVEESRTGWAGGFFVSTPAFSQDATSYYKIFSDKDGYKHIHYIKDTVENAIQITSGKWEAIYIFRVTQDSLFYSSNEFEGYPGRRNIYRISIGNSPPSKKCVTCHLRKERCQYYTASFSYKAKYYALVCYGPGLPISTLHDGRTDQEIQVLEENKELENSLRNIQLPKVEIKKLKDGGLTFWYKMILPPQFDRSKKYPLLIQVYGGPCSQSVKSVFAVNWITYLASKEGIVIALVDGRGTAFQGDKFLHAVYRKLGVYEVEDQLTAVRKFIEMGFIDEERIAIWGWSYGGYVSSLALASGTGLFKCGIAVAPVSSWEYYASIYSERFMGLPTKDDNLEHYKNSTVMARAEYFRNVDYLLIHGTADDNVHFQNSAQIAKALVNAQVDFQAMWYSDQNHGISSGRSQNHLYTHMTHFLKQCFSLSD

[3] = molecular target: human FAP ECD (human, UniProt Q12884); assay: SPR
Chain of human FAP ECD (Q12884 26-760): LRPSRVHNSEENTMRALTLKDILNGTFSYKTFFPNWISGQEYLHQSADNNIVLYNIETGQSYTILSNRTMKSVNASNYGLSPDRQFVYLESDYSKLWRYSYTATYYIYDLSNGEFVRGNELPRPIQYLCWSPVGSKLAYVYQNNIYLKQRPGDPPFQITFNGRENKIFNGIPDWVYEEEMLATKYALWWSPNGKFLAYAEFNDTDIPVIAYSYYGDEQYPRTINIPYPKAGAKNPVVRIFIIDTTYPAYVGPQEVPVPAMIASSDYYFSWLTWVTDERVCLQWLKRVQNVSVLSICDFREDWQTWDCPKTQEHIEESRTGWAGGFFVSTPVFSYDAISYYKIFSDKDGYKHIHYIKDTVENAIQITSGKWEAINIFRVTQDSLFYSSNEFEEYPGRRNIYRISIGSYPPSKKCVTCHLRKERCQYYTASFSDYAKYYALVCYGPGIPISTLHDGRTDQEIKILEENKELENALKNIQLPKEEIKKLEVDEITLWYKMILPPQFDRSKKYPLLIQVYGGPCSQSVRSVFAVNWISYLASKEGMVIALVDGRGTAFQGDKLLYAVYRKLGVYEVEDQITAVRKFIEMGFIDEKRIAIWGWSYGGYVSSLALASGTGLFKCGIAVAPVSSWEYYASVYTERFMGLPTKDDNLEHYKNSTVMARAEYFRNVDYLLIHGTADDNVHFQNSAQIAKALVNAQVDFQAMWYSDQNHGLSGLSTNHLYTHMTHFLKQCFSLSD

Chain of human FAP (cell surface) (Q12884 26-760): as above

EC50 [1]: 2.51 nM | EC50 [2]: 0.79 nM | Kd [3]: 0.405 nM
B1: Ab10-A297V3-2 FAP arm (antibody, V domains shown)
VH: QVQLQQSGVEVKKPGASVTVSCRASGYSFADHFIHWVRQAPGQGFQWMGWINPNRGVTHHAQDFQGRVAMTRDMSTDTVYMELTSLRSDDTAVYYCARDASLTARPYYFYGFDVWGQGTLVTVSS
VL: DIQMTQSPSSVSASVGDRVTITCRASQGISSWLAWYQQKPGKAPKLLIYAASSLQSGVPSRFSGSGSGTDFTLTISSLQPEDFATYYCQQANSFPPAFGQGTKVEIK

EC50 [1]: 1.57 nM | EC50 [2]: 1.65 nM | Kd [3]: 0.378 nM
B2: Ab10-A297V3-4 FAP arm (antibody, V domains shown)
VH: B1 VH
VL: B1 VL
